Data reported in publication doi:10.1101/2025.09.19.677352.

What was measured:
[1] = target: ap JFcα (mallard duck IgA heavy chain Cα2-Cα3-Cα4-Tp co-expressed with joining chain) (Anas platyrhynchos (mallard duck)); experiment: SPR
[2] = target: mm JFcα (mouse IgA heavy chain and joining chain) (Mus musculus (house mouse)); experiment: SPR

Row | Substance | SPR response [1] | also measured
1 | ap SC D1_(ΔN-ext.)-D2-D3-D4 (mallard duck SC without the SC N-terminal extension) (domain or fragment) | – | maximum response against concentration-matched ap SC wt [1]: 20 % lower
2 | mm SC D1 (mouse SC D1 only) (domain or fragment) | 7 RU | –
3 | hs SC D1-D3-D4-D5 (human SC with D2 deletion) (from UniProt P01833 19-638) (domain or fragment) | 34 RU | –
4 | mm SC D1-D3-D4-D5 (mouse SC with D2 deletion) (from UniProt O70570 19-585) (domain or fragment) | 1 RU | –
5 | hs SC D1 (human SC D1 only) (domain or fragment) | 29 RU | –
6 | mm SC D1_((+)N-ext.) (mouse SC D1 with the mallard duck SC N-terminal extension) | – | maximum response at 64 nM against the non-chimeric variant [2]: 93 % higher
